Data set [1] deals with T1, 人白介素23(Human interleukin 23，hIL-23) (human, UniProt Q9NPF7 20-189; P29460 23-328).
T1 sequence 1: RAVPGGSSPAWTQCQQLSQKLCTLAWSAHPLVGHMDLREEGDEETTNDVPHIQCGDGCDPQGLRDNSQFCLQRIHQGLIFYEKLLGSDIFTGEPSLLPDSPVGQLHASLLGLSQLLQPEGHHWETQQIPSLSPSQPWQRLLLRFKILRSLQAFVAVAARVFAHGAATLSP
T1 sequence 2: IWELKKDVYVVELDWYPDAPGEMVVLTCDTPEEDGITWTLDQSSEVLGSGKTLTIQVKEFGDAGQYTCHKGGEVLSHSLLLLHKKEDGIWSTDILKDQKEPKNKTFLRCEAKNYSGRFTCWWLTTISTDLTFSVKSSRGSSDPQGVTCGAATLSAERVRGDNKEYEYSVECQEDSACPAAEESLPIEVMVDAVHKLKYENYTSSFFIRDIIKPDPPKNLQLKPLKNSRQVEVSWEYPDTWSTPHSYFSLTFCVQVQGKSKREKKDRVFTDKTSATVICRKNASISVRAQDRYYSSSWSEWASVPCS
The data set is described as follows: cell-based or functional assay.

For data set [2], the target named is T1, 人白介素23(Human interleukin 23，hIL-23). The data set can be described thus: SPR, Biacore T200, antibody captured on Protein A chip, IL-23 as analyte, 25℃, 1:1 model. (In general: SPR reads the build-up and loss of mass on a sensor chip optically.)

B1: 抗人白介素23单克隆抗体QX004N(HZD90-32) (antibody, human IgG1, kappa, V domains shown)
VH: EVQLVESGGGLVQPGGSLRLSCAASGFSLSNHEMSWVRQAPGKGLEWIGIITTSDTTYYATWAKGRFTISRDNSKNTLYLQMNSLRAEDTAVYYCARVDIVLLSVTSRIWGQGTLVTVSS
VL: DVVMTQSPSSLSASVGDRVTITCQASQSVSTYLSWYQQKPGKAPKLLIYGASNLESGVPSRFSGSGSGTDFTLTISSLQPEDFATYYCQSGYVFAGLTFGGGTKVEIKR
With B1, in data set [1], the “抑制IL-23诱导的HEK Blue TM IL-23细胞中STAT3磷酸化活性 IC50” value amounted to 0.00321 µg/mL, the “抑制IL-23诱导的人NK细胞释放IFN-γ活性 IC50” value is 0.0104 µg/mL and the “抑制IL-23诱导的小鼠脾脏细胞释放IL-17A活性 IC50” value stood at 0.0117 µg/mL. Further, in data set [2], the Kd (commonly the concentration at which binding is half-saturated) worked out at 0.101 nM; the koff – broadly, the rate constant with which the complex falls apart – turned out to be 3.5e-05 s⁻¹; the kon (as a rule, the rate constant with which the complex forms) came out at 366000 M⁻¹ s⁻¹.

B2: Risankizumab (antibody, V domains shown)
VH: QVQLVQSGAEVKKPGSSVKVSCKASGYTFTDQTIHWMRQAPGQGLEWIGYIYPRDDSPKYNENFKGKVTITADKSTSTAYMELSSLRSEDTAVYYCAIPDRSGYAWFIYWGQGTLVTVSS
VL: DIQMTQSPSSLSASVGDRVTITCKASRDVAIAVAWYQQKPGKVPKLLIYWASTRHTGVPSRFSGSGSRTDFTLTISSLQPEDVADYFCHQYSSYPFTFGSGTKLEIKR
As to B2, in data set [1], the “抑制IL-23诱导的HEK Blue TM IL-23细胞中STAT3磷酸化活性 IC50” value was 0.00351 µg/mL, the “抑制IL-23诱导的人NK细胞释放IFN-γ活性 IC50” value amounted to 0.0111 µg/mL and the “抑制IL-23诱导的小鼠脾脏细胞释放IL-17A活性 IC50” value is 0.00843 µg/mL. Moreover, in data set [2], binding was put at a Kd of 0.052 nM, the koff was 3.7e-05 s⁻¹ and the kon was 706000 M⁻¹ s⁻¹.

B3: Guselkumab (antibody, V domains shown)
VH: EVQLVQSGAEVKKPGESLKISCKGSGYSFSNYWIGWVRQMPGKGLEWMGIIDPSNSYTRYSPSFQGQVTISADKSISTAYLQWSSLKASDTAMYYCARWYYKPFDVWGQGTLVTVSS
VL: QSVLTQPPSVSGAPGQRVTISCTGSSSNIGSGYDVHWYQQLPGTAPKLLIYGNSKRPSGVPDRFSGSKSGTSASLAITGLQSEDEADYYCASWTDGLSLVVFGGGTKLTVLG
Regarding B3, in data set [1], the “抑制IL-23诱导的人NK细胞释放IFN-γ活性 IC50” value is 0.0168 µg/mL and the “抑制IL-23诱导的小鼠脾脏细胞释放IL-17A活性 IC50” value came out at 0.0135 µg/mL. Moreover, the Kd in data set [2] is 0.063 nM.
